From patent US20240262878A1, “PHOTOACTIVATABLE GASDERMIN PROTEINS” (THE BOARD OF TRUSTEES OF THE UNIVERSITY OF ILLINOIS, priority 2021, published 2024)

Experiments:
living endothelial cells = experiment: Whole-cell patching after injection of activated recombinant GSDMD; assay type: cell-based; settings: injection of activated protein, n=15
From the text: To further address whether the calcium dynamics primarily reflected that of GSDMD pores, whole-cell patching was directly recorded in living endothelial cells, which also undergo pyroptosis. […] Additionally, as befitting a large pore, the GSDMD pore opening/closing dynamics were not restricted to calcium observations. Calcium flares were visualized, which occurred in coincidence with the transient flux of a large fluorogenic molecule, within the same spatiotemporal context in living cells.

GSDMD pores = target: T1, GSDMD pores (Homo sapiens, UniProt P57764); experiment: Free-standing planar lipid bilayer electrophysiology of reconstituted GSDMD pores; assay type: biochemical
T1 construct: His-SUMO (N, cleaved yes); made in house; host or cells: E. coli BL21
T1 sequence (P57764 1-275 limits assumed): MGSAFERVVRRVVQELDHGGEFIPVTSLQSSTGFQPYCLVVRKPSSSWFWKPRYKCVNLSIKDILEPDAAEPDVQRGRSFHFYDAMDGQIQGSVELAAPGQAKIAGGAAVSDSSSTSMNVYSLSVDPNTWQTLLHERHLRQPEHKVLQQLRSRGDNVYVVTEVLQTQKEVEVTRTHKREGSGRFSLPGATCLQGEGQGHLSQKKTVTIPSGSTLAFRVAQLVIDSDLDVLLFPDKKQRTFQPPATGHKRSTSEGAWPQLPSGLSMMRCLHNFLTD
Experimental: Protein Purification. Plasmid encoding the full length human GSDMD with a N-terminal His-SUMO tag was transformed into E. coli BL21 strain. The cultures were grown at 37° C. until OD600 0.8, and protein expression was induced with 0.2 mM isopropyl β-D-1-thiogalactopyranoside (IPTG) overnight at 20° C. The cells were harvested by centrifugation and the pellet was resuspended in 20 mM Tris buffer, pH 7.5, 50 mM NaCl, 5 mM imidazole, 20 mM MgCl2, 10 mM KCl, 0.5 mM TCEP, 0.1 mM protease inhibitor, and DNase I. After resuspension, cells were disrupted by high-pressure and centrifuged at 30,000 g at 4° C. for 1 hour. The supernatant was incubated for 2 hours at room temperature with pre-equilibrated Ni-NTA affinity resin (Thermo Scientific) and then passed through a column for gravity flow purification. The column was washed with 20 column volumes of resuspension buffer, and the fusion protein was eluted with three column volumes of the same buffer with 250 mM imidazole. SUMO-tag cleavage was achieved by addition of ULP1 protease to the solution and subsequent dialysis overnight at 4° C. against 20 mM Tris buffer, pH 7.5, 50 mM NaCl, 0.5 mM TCEP. GSDMD was eluted from a second round of purification through pre-equilibrated Ni-NTA affinity resin. The protein was further purified by HI-TRAP® Q ion-exchange resin and a SUPERDEX® 75 gel filtration column (GE Healthcare) pre-equilibrated with 20 mM Tris buffer, pH 7.5, 50 mM NaCl, 0.5 mM TCEP. The purified protein was concentrated to 20 mg/ml and frozen at −80° C.
Free-Standing Lipid Bilayer Formation and Electrophysiology. For the lipid bilayer, a bilayer chamber with a polystyrene cuvette was used. In addition, the folding method, which is based on Langmuir-Blodgett film formation (Kroemer et al. (2009) Cell Death Differ. 16:3-11; Weavers et al. (2016) Cell 165:1658-1671) was employed. Monolayers that were spread in the air-water interface were faced at the chamber hole (Bergsbaken & Fink (2009) Nat. Rev. Microbiol. 7:99-109; Mulvihill et al. (2018) EMBO J. 37 (14): e98321). In brief, a shallow trough made of polystyrene was filled with recording solution, and the surface was separated into two parts by one of the cuvette walls. Bilayers were formed by monolayers of 1:3 1-palmitoyl-2-oleoylphosphatidylethanolamine (POPE)/1-palmitoyl-2-oleoylphosphatidylcholine (POPC) (Avanti-lipids) in pentane; where appropriate, phosphoinositides of the indicated headgroup were introduced with di-oleoyl (18:1) fatty acid chains at 10% relative concentration. A small amount of phospholipid, dispersed in pentane solution, was dropped on one of the water surfaces and as pentane evaporated, the lipid molecules remained at the air-water interface. The movements of the lipid molecules became less vigorous, and eventually the lipid molecules packed together to form a monolayer. For the formation of the planar lipid bilayer by the folding method, a monolayer was formed at the air-water interface in each compartment. Upon raising the recording solution level by adding more solution, the monolayer ran up on the cuvette surface and passed through the hole, where the two monolayers from both sides encountered each other and formed a bilayer. The membrane formed by this method has been referred to as a “solvent-free” membrane. The advantage of this method over other methods, like the painting method, is the capacity to form an asymmetrical membrane in which the lipid composition of either leaflet is arbitrarily defined (Kayagaki et al. (2015) Nature 526: 666-671). Once formed, the membrane retains this asymmetry for a long time because the flip-flop or exchange of the lipid molecules between both leaflets of the membrane is very slow.
For incorporation of the GSDMD into the lipid bilayer, 2 μM of the purified GSDMD protein was added to the cis side chamber along with 2 μM of caspase 1. The specific membrane capacitance of the membrane formed by the folding method was 0.6-0.8 μF/cm^2. […]

mean current of single pores (GSDMD pores; POPE/POPC baseline bilayer): 32 pA
open probability (GSDMD pores; POPE/POPC baseline bilayer): ~0.2
time to micro-currents (protein-membrane interaction) after protein introduction (GSDMD pores; POPE/POPC baseline bilayer, GSDMD + caspase-1, n=20 bilayers): 27.2 ± 2.7 min
ion selectivity of pores (GSDMD pores; ramp protocol, dual rectification): not inherently ion-selective
B1: GSDMD: purified recombinant full length human GSDMD, activated by caspase-1 (protein, UniProt P57764 1-484, looked up)
chain: MGSAFERVVRRVVQELDHGGEFIPVTSLQSSTGFQPYCLVVRKPSSSWFWKPRYKCVNLSIKDILEPDAAEPDVQRGRSFHFYDAMDGQIQGSVELAAPGQAKIAGGAAVSDSSSTSMNVYSLSVDPNTWQTLLHERHLRQPEHKVLQQLRSRGDNVYVVTEVLQTQKEVEVTRTHKREGSGRFSLPGATCLQGEGQGHLSQKKTVTIPSGSTLAFRVAQLVIDSDLDVLLFPDKKQRTFQPPATGHKRSTSEGAWPQLPSGLSMMRCLHNFLTDGVPAEGAFTEDFQGLRAEVETISKELELLDRELCQLLLEGLEGVLRDQLALRALEEALEQGQSLGPVEPLDGPAGAVLECLVLSSGMLVPELAIPVVYLLGALTMLSETQHKLLAEALESQTLLGPLELVGSLLEQSAPWQERSTMSLPPGLLGNSWGEGAPAWVLLDECGLELGEDTPHVCWEPQAQGRMCALYASLALLSGLSQEPH
modifications: full-length activated by caspase-1
single pore currents, whole-cell patching (living endothelial cells): showed single pore currents
